Results published in patent publication US7998940B2, “Aptamers to von Willebrand factor and their use as thrombotic disease therapeutics” (Archemix Corp., priority 2004, dated 2011).
Numbering of substitutions follows the chain as printed. Oligonucleotides are written 5' to 3', each unit as a sugar letter and its base; * is a phosphorothioate linkage, no mark a phosphodiester; rarer units and linkages stand in square brackets, end groups in braces. Plain capitals give the bases only. d = 2'-deoxy (DNA); r = 2'-OH (RNA)

B1: AMX200.G11: DNA SELEX 1 aptamer clone (nucleic acid)
DNA: CTACCTACGATCTGACTAGCGGAACGAGAATGCTGATGGATTGCTCAGGTCTGCTGGCTGCTTACTCTCATGTAGTTCC
modifications: DNA, backbone not given here
notes: DNA SELEX 1 aptamer clone
B2: AMX200.E8: DNA SELEX 1 aptamer clone (nucleic acid)
DNA: B1 DNA with C25T, A29G, A36G, C54T
modifications: DNA, backbone not given here
notes: DNA SELEX 1 aptamer clone
B3: AMX200.B1: DNA SELEX 1 aptamer clone (nucleic acid)
DNA: B1 DNA with C25T, T45C
modifications: DNA, backbone not given here
notes: DNA SELEX 1 aptamer clone
B4: AMX200.F9: DNA SELEX 1 aptamer clone (nucleic acid)
DNA: B1 DNA with C25T, A29G, C44G
modifications: DNA, backbone not given here
notes: DNA SELEX 1 aptamer clone
B5: AMX200.D1: DNA SELEX 1 aptamer clone (nucleic acid)
DNA: B1 DNA with C25T, A30G, G53A
modifications: DNA, backbone not given here
notes: DNA SELEX 1 aptamer clone
B6: AMX200.D11: DNA SELEX 1 aptamer clone (nucleic acid)
DNA: B1 DNA with C25T, G26A
modifications: DNA, backbone not given here
notes: DNA SELEX 1 aptamer clone
B7: AMX200.B9: DNA SELEX 1 aptamer clone (nucleic acid)
DNA: B1 DNA with C25T, G57A
modifications: DNA, backbone not given here
notes: DNA SELEX 1 aptamer clone
B8: AMX200.A7: DNA SELEX 1 aptamer clone (nucleic acid)
DNA: B1 DNA with C25T, C44T
modifications: DNA, backbone not given here
notes: DNA SELEX 1 aptamer clone
B9: AMX200.D8: DNA SELEX 1 aptamer clone (nucleic acid)
DNA: B1 DNA with C25T, C33T
modifications: DNA, backbone not given here
notes: DNA SELEX 1 aptamer clone
B10: AMX200.B8: DNA SELEX 1 aptamer clone (nucleic acid)
DNA: B1 DNA with C25T, C33T, A36G
modifications: DNA, backbone not given here
notes: DNA SELEX 1 aptamer clone
B11: AMX199.F10: DNA SELEX 1 aptamer clone (nucleic acid)
DNA: CTACCTACGATCTGACTAGCGAAACACTAGGTTGGTTAGGATTGGTGTGTTTCCGTTCTGCTTACTCTCATGTAGTTCC
modifications: DNA, backbone not given here
notes: DNA SELEX 1 aptamer clone
B12: AMX199.F6: DNA SELEX 1 aptamer clone (nucleic acid)
DNA: B11 DNA with T52C, T56C
modifications: DNA, backbone not given here
notes: DNA SELEX 1 aptamer clone
B13: AMX199.G5: DNA SELEX 1 aptamer clone (nucleic acid)
DNA: B11 DNA with T52C, T56C, T57C
modifications: DNA, backbone not given here
notes: DNA SELEX 1 aptamer clone
B14: AMX199.G4: DNA SELEX 1 aptamer clone (nucleic acid)
DNA: B11 DNA with T52C, T56C, C58A
modifications: DNA, backbone not given here
notes: DNA SELEX 1 aptamer clone
B15: AMX199.H7: DNA SELEX 1 aptamer clone (nucleic acid)
DNA: B11 DNA with T56C, C58T
modifications: DNA, backbone not given here
notes: DNA SELEX 1 aptamer clone
B16: AMX199.G1: DNA SELEX 1 aptamer clone (nucleic acid)
DNA: B11 DNA with T52C, T56C, C58T
modifications: DNA, backbone not given here
notes: DNA SELEX 1 aptamer clone
B17: AMX199.A10: DNA SELEX 1 aptamer clone (nucleic acid)
DNA: B11 DNA with A22G, T52C, C58T
modifications: DNA, backbone not given here
notes: DNA SELEX 1 aptamer clone
B18: AMX199.F1: DNA SELEX 1 aptamer clone (nucleic acid)
DNA: B11 DNA with T52C, T56C, C58A
modifications: DNA, backbone not given here
notes: DNA SELEX 1 aptamer clone
B19: AMX199.F11: DNA SELEX 1 aptamer clone (nucleic acid)
DNA: B11 DNA with C54T, T56C
modifications: DNA, backbone not given here
notes: DNA SELEX 1 aptamer clone
B20: AMX203.F9: rRdY aptamer clone (nucleic acid)
chain: rGrGrArGdCrGdCrAdCdTdCrArGdCdCrAdCdTrGrArArGrGrGdTrArArGrGrAdCrGrArGrGrArGrGrGdTrAdTrAdCrArGdTrGdTrGdCrGdCrGdTrGdTrAdTdTdTdCrGrAdCdCdTdCdTdCdTrGdCdTrArGdC
B21: AMX203.A6: rRdY aptamer clone (nucleic acid)
chain: rGrGrArGdCrGdCrAdCdTdCrArGdCdCrAdCdCrAdCrGrGrGrGrAdCrGrGrGdTrArGrGrGdCrGrGrGdCrGrArGrGdTrGrGdTrGrGdCrAdTdTrArGdCrGdTdTdTdCrGrAdCdCdTdCdTdCdTrGdCdTrArGdC
B22: AMX200.A11: DNA SELEX 1 aptamer clone (nucleic acid)
DNA: CTACCTACGATCTGACTAGCTGAGTAGTTAGTAACTTTTTATTATGGTTTGGTGGGTCTGGCTTACTCTCATGTAGTTCC
modifications: DNA, backbone not given here
notes: DNA SELEX 1 aptamer clone
B23: AMX200.H8: DNA SELEX 1 aptamer clone (nucleic acid)
DNA: B22 DNA with T29C, C35T, T57C
modifications: DNA, backbone not given here
notes: DNA SELEX 1 aptamer clone
B24: AMX199.F8: DNA SELEX 1 aptamer clone (nucleic acid)
DNA: CTACCTACGATCTGACTAGCAAGGGGATTGGCTCCGGGTCTGGCGTGCTTGGCACCTCTGGCTTACTCTCATGTAGTTCC
modifications: DNA, backbone not given here
notes: DNA SELEX 1 aptamer clone
B25: AMX199.B6: DNA SELEX 1 aptamer clone (nucleic acid)
DNA: B24 DNA with C53T, T59C
modifications: DNA, backbone not given here
notes: DNA SELEX 1 aptamer clone
B26: AMX205.G9: rRdY aptamer clone (nucleic acid)
chain: rGrGrArGdCrGdCrAdCdTdCrArGdCdCrAdCrArAdCdTrGrGdTdTrGdTdCrGrGdTrGrAdTrGrGdCrAdTdTrArAdCrGdCrGrGrAdCdCrArGrGdCrAdTrGdTdTdTdCrGrAdCdCdTdCdTdCdTrGdCdTrArGdC

Experiments:
[1] = system: rabbit vWF A1 domain (SEQ ID NO 6); test: 3-point dot blot screen, rabbit vWF A1 domain; type: binding; details: 100 nM rabbit vWF A1 domain, ratio of fraction bound with target to without
rabbit vWF A1 domain (SEQ ID NO 6), sequence (as listed by the source): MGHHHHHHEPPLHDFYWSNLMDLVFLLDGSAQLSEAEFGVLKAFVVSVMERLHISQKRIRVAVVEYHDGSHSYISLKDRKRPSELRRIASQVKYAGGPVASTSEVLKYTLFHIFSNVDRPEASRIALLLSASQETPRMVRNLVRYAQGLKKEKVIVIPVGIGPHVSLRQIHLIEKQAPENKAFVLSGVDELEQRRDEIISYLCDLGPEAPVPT
Excerpt: (§1) When a significant positive ratio of binding of RNA in the presence of human or rabbit vWF A1 domain versus in the absence of protein was seen, the pools were cloned using the TOPO TA cloning kit (Invitrogen, Cat. #45-0641, Carlsbad, Calif.) according to the manufacturer's instructions. Round 9 and 12 pool templates were cloned and sequenced (125 total sequences), producing 48 unique clones. All unique clones were transcribed, desalted, 5-^32P end-labeled, and assayed in a 3-point dot blot screen (no protein target control, 100 nM human vWF A1 domain (SEQ ID NO 5, FIG. 3), or 100 nM rabbit vWF A1 domain (SEQ ID NO 6, FIG. 3). The data is presented in the third and fourth columns of Table 4 below as the ratio of the fraction of the aptamer bound to the nitrocellulose in the presence of the target protein to the fraction of aptamer bound in the absence of the target protein.
(§2) When a significant positive ratio of binding of RNA in the presence of human or rabbit vWF A1 domain (SEQ ID NOS 4 and 6, respectively) versus in the absence of protein was seen, the pools were cloned using the TOPO TA cloning kit (Invitrogen Cat. #45-0641, Carlsbad, Calif.) according to the manufacturer's instructions. Round 9 and 12 pool templates were cloned and sequenced (185 total sequences), producing 78 unique clones within 3 sequence families. All unique clones were transcribed, desalted, 5-^32P end-labeled, and assayed in a 3-point dot blot screen (no protein target control, 100 nM human vWF A1 domain (SEQ ID NO 5), or 100 nM rabbit vWF A1 domain (SEQ ID NO 6). The data are presented in the third and fourth columns of Table 9 below as the ratio of the fraction of the aptamer bound to the nitrocellulose in the presence of the target protein to the fraction of aptamer bound in the absence of the target protein. Of the three sequence families, members of Family #1 and #2 and two individual, non-family aptamers, bound to both human vWF domain A1 (SEQ ID NO 5) and rabbit vWF domain A1 (SEQ ID NO 6).
(§3) All unique clones were assayed in a 3-point dot blot screen (no protein target control, 100 nM human vWF A1 domain (SEQ ID NO 5), or 100 nM rabbit vWF A1 domain (SEQ ID NO 6). The data are presented in the third and fourth columns of Table 14 below as the ratio of the fraction of the aptamer bound to the nitrocellulose in the presence of the target protein to the fraction of aptamer bound in the absence of the target protein.
When a significant positive ratio of binding of DNA in the presence of human or rabbit vWF A1 domain versus in the absence of protein was seen, the pools were cloned using the TOPO TA cloning kit (Invitrogen Cat. #45-0641, Carlsbad, Calif.) according to the manufacturer's instructions. Round 7 and 11 pool templates were cloned and sequenced (218 total sequences), producing 146 unique clones within 12 sequence families of which sequences from six families show vWF target binding activity. All unique clones were assayed twice in a 3-point dot blot screen (no protein target control, 20 nM full length human vWF (Calbiochem Cat. #681300, La Jolla, Calif.), or 20 nM rabbit vWF A1 domain. The data is presented in the third and fourth columns of Table 17 below as the ratio of the fraction of the aptamer bound to the nitrocellulose in the presence of the target protein to the fraction of aptamer bound in the absence of the target protein.

[2] = molecular target: human vWF A1 domain (SEQ ID NO 5) (Homo sapiens, UniProt P04275, T1381A); test: 3-point dot blot screen, human vWF A1 domain; type: binding; details: 100 nM human vWF A1 domain, ratio of fraction bound with target to without
human vWF A1 domain (SEQ ID NO 5), sequence (P04275 with tags, fused parts or gaps T1381A): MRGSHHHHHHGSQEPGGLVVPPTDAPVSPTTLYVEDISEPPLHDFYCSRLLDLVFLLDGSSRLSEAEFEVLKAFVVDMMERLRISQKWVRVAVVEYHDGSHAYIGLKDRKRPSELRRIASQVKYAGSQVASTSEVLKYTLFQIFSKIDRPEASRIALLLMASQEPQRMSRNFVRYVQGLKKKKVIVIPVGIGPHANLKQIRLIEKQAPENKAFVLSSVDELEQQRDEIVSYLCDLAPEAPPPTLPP
Excerpt: as §1, §2, §3

Row | Molecule | Screen- Rabbit/No Protein ([1]; DNA SELEX 1 aptamers) | Screen- Human/No Protein ([2]; DNA SELEX 1 aptamers) | Screen- Rabbit/No Protein ([1]; rRdY aptamers) | Screen- Human/No Protein ([2]; rRdY aptamers)
1 | B1 | 1.28 | 1.73 |  | 
2 | B2 | 1.03 | 1.04 |  | 
3 | B3 | 3.01 | 4.01 |  | 
4 | B4 | 0.99 | 0.97 |  | 
5 | B5 | 1.06 | 1.26 |  | 
6 | B6 | 2.04 | 3.34 |  | 
7 | B7 | 2.06 | 2.54 |  | 
8 | B8 | 0.96 | 0.97 |  | 
9 | B9 | 1.61 | 2.86 |  | 
10 | B10 | 3.13 | 4.13 |  | 
11 | B11 | 1.24 | 1.17 |  | 
12 | B12 | 1.30 | 1.37 |  | 
13 | B13 | 1.34 | 1.41 |  | 
14 | B14 | 1.11 | 1.19 |  | 
15 | B15 | 1.14 | 1.32 |  | 
16 | B16 | 1.26 | 1.19 |  | 
17 | B17 | 1.29 | 1.25 |  | 
18 | B18 | 1.36 | 1.32 |  | 
19 | B19 | 1.35 | 1.44 |  | 
20 | B20 |  |  | 1.29 | 1.45
21 | B21 |  |  | 1.16 | 1.16
22 | B22 | 1.19 | 1.49 |  | 
23 | B23 | 1.27 | 1.86 |  | 
24 | B24 | 1.79 | 1.78 |  | 
25 | B25 | 1.91 | 2.01 |  | 
26 | B26 |  |  | 1.73 | 1.30
